Paper PMC3153611

Molecular target: SRPK1 (UniProt Q96SB4)
Test: rapid quench single-turnover, fast-phase amplitude
Details: reference: 0P complex (no pre-phosphorylation)

Substance	other: fast-phase amplitude αp at 1 µM SRPK1
SRSF1 (aka ASF/SF2) (from UniProt Q07955) 6P complex (6.3 phosphates in RS1)	weaker; reference 1.0 ± 0.18
SRSF1 (aka ASF/SF2) (from UniProt Q07955) 4P complex (4 phosphates in RS1)	same; reference 1.0 ± 0.18
SRSF1 (aka ASF/SF2) (from UniProt Q07955) 1P complex (1.2 phosphates in RS1)	same; reference 1.0 ± 0.18
SRSF1 (aka ASF/SF2) (from UniProt Q07955) 8P complex (8.3 phosphates in RS1)	weaker; reference 1.0 ± 0.18
